Target: the molecule itself
Assay: crystal structure

B1: HsKYNase_66-Ct6XHis (HsKYNase_66 with a C-terminal 6X-Histidine Tag) (enzyme, human)
chain: MEPSSLELPADTVQRIAAELKCHPTDERVALHLDEEDKLRHFRECFYIPKIQDLPPVDLSLVNKDEDAIYFNGNSLGLQPKMVKTYLEEELDKWAKIAIYGWFEGDSPWIHYDESIVGLMKDIVGANEKEIVLMNTLTVNLHLLMLSFFKPTPKRYKILLEAKAFPSDHYAIESQLQLHGLNIEESMRIIKPREGEETLRIEDILEVIEKEGDSIAVILFSGIHYYTGQHFNIPAITKAGQAKGCYVGFDLAHAVGNVELYLHDWGVDFACWCGYKYLNSSPGGIAGAFIHEKHAHTIKPALVGWFGHELSTRFKMDNKLQLIPGVCGFRCSTPPILLVCILHASLEIFKQATMKALRKKSVLLTGYLEYLIKHNYGKDKAATKKPVVNIITPSHVEERGCQLTLTFNVPNKDVFQELEKRGVVCDKRNPNGIRVAPVPLYNSFHDVYKFTNLLTSILDSAETKN
modifications: PLP cofactor bound as internal aldimine
stoichiometry N: 2

Reference: article PMC9717613 (Nature catalysis, 2022)
